# Molecular target: mouse recombinant His-calmodulin, calcium-bound (mouse), P0DP26
binder,measurement,value
"INLKALAALAKKIL (modifications not checked) [Mastoparan, P01514 1-14]",Kd,1.2 nM

# Reference: patent publication US20210156867A1
